B1: SNAP91 (parent)
chain: FAQPMMRPPFGAAAVPGTQLSPSP

Variants of: B1
Assay: protein stability index of a GFP-peptide fusion (GPS, HEK-293T) (PSI 1-6); higher = more stable
Conditions: c terminus: a fixed tail appended
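Further: lentivirally expressed fusions sorted by FACS into six bins by GFP to DsRed ratio, PSI derived from sequencing read proportions per bin multiplied by bin number.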

Protein stability index, by site and new letter:
V15: W 2.52; Y 2.83; Q 3.42; L 3.08; H 3.28; K 2.92; T 3.5; F 2.78; S 3.28; M 3.01; E 2.98; G 2.96; C 3.21; R 3.31; N 3.27; A 3.54; I 2.82; D 2.73
F10: R 3.86; K 3.83; Q 4.33; L 4.12; A 3.98; I 3.99; P 4.31; M 4.12; G 4.2; W 2.1; E 3.99; H 3.58; C 2.95; T 4.14; S 3.81; Y 2.83; N 4.14; D 4.52; V 4.7
P24: A 3.11
G17: F 2.69; D 3.04; A 3.11; S 2.81; E 2.71; V 2.85; R 3.89; M 2.84; W 2.49; H 3.22; I 2.88; L 3.46; Y 2.74; T 3.24; C 2.71; Q 3.48; N 3.44; K 3.17
S23: N 3.29; I 2.73; Y 2.52; V 3.19; T 3.27; L 2.1; F 2.75; H 2.96; Q 3; E 3.32; A 3.4; D 3.54; G 3.05; K 3.21; C 3.25; W 2.03; M 2.36; R 4.14
P16: Y 2.15; W 1.78; T 3.37; R 3.36; S 3.02; I 2.22; A 3.29; D 2.99; M 2.69; L 2.74; E 2.38; Q 3.19; H 2.71; N 3.2; V 3.33; F 2.53; C 2.77; K 3.25; G 2.81
Q19: E 2.72; V 2.96; G 2.96; T 2.87; Y 2.69; M 2.89; L 2.5; D 3.22; K 2.41; C 2.57; N 3.17; F 2.64; I 2.87; H 3.08; R 3; W 2.4; S 2.84; A 2.98
G11: T 3.44; R 4.01; K 3.55; S 4.04; P 3.98; M 3.29; Y 2.91; A 3.74; H 2.91; E 3.43; W 1.88; D 3.7; C 2.96; Q 4.35; F 2.86; I 2.73; L 3.04; V 3.35; N 3.67
P8: R 3.03; N 2.98; V 3.11; F 2.97; L 2.87; I 2.49; M 3.01; Y 2.79; K 2.97; G 2.97; C 2.39; D 3.5; E 3.75; W 2.64; H 3.16; T 3.02; S 2.96; Q 3.36; A 3.82
A14: G 2.8; H 2.99; S 2.87; I 2.82; L 2.78; K 3.21; N 3.17; E 3.01; P 3.08; D 2.79; R 3.31; T 2.45; M 3.03; Y 3.04; F 2.65; V 2.61; C 2.81; Q 3.25; W 1.81
P9: F 1.63; W 1.91; A 3.51; V 3.26; Q 3.91; S 3.75; Y 2.34; D 4.04; E 3.94; R 3.77; N 3.14; T 3.59; M 3.1; C 3.06; L 1.91; K 2.71; I 2.57; H 3.52; G 3.45
T18: R 3.41; P 3.14; M 2.95; E 2.6; I 2.84; F 2.89; W 2.29; G 2.72; N 2.87; V 2.76; C 2.92; A 3.1; S 3.02; H 2.82; Q 3.15; D 2.6; L 2.95; Y 2.58; K 2.75
A13: Y 2.75; F 3.13; P 3.76; K 3.13; Q 3.32; R 3.65; M 2.79; I 2.54; G 3.44; C 2.39; N 3.46; H 3.13; W 1.62; S 3.25; D 3.38; E 3.24; L 2.63; T 3.36; V 2.73
A12: K 3.16; G 3.5; W 2.77; D 3.82; R 3.33; I 2.58; V 2.55; P 2.7; H 2.96; M 3.03; E 3.39; C 2.46; Y 2.53; F 2.83; L 2.42; S 2.91; Q 3.62; N 3.54; T 2.91
M6: G 3.01; L 3.13; Q 3.9; V 3.87; P 3.62; W 2.61; R 3.1; N 3.19; T 3.68; I 3.77; H 4.01; Y 2.88; K 3.65; S 3.1
L20: S 3.33; P 3.2; A 3.28; M 2.92; C 3.7; E 2.94; F 2.71; N 3.26; Q 4.04; D 2.98; H 3.43; G 3.6; V 2.85; W 2.73; Y 3.08; R 3.51; T 3.56; K 3.29; I 3.02
R7: F 1.55; D 3.13; W 1.7; C 2.3; Q 2.62; T 2.67; K 3.34; V 2.49; G 2.23; A 3.55; M 2.42; S 3.32; P 2.87; L 2.38; I 2.4; H 2.81; N 2.92; Y 1.89; E 3.22
S21: Q 3.29; V 3.44; Y 3; H 3.16; I 3.48; F 3.01; W 2.89; E 2.98; G 3.28; N 3.03; L 2.76; T 3.06; P 3.11; D 2.63; M 2.85; A 3.49; C 2.86; R 3.12; K 2.95
P22: N 3.58; C 2.67; Q 3.57; H 3.14; Y 3.49; I 2.75; S 2.96; W 2.65; M 2.86; T 3.3; D 2.97; L 3.22; V 3.08; F 2.82; R 3.32; E 2.71; A 3.28; G 3.56; K 3

— the supplement of paper PMC10567573
